Experiments:
[1] = molecular target: Human purified C4BP (α7β1) (human) (UniProt P04003); assay: ELISA; increasing concentrations of Lig proteins with a fixed amount of C4BP (1 μg); Kd estimated by nonlinear regression, Y = Bmax*X/(Kd + X)
[2] = molecular target: LigB9-10 (L. interrogans); assay: ELISA; Lig tandem-domain constructs immobilised; 1 μg of C4BP mixed with heparin (0-10 mg/ml); detected with mouse monoclonal anti-C4BP α/β chains; binding without heparin set as 100%
LigB7-8 (L. interrogans) = assay: as above
[3] = molecular target: LigA10-11 (L. interrogans); assay: as above
LcpA (L. interrogans) = assay: ELISA; LigA, LigB or LcpA immobilised; commercial C4BP in 10 mM Na2HPO4, 1.8 mM KH2PO4 with NaCl 0 to 600 mM; detected with polyclonal rabbit anti-C4BP; binding without NaCl set as 100%
[4] = molecular target: LigBC (fragment of leptospiral immunoglobulin-like protein B, residues 631-1156) (L. interrogans); assay: as above
[5] = molecular target: T1, Human purified C4BP (α7β1) (human, UniProt P04003 49-597; P20851 18-252); assay: ELISA; increasing concentrations of Lig proteins with a fixed amount of C4BP (1 μg); Kd estimated by nonlinear regression, Y = Bmax*X/(Kd + X); conditions: both partners purified
T1 construct: also called C4BP WT (commercial); source: bought: Complement Technology (Texas, USA), human purified; copies: 7 + 1
T1 sequence 1: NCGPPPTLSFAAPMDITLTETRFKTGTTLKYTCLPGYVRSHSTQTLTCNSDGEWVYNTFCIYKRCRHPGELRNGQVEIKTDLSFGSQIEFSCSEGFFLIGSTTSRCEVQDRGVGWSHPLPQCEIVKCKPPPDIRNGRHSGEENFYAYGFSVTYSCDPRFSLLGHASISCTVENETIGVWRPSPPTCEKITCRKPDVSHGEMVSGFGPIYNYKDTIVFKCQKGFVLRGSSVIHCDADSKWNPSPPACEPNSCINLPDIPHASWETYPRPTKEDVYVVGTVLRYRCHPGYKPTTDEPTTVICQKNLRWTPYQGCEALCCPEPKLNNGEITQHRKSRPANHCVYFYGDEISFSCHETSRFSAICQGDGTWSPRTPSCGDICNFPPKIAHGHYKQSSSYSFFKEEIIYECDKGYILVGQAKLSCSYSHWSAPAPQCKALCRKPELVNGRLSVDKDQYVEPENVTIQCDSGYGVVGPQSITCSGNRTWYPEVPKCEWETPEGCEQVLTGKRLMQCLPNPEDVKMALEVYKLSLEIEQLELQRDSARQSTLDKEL
T1 sequence 2: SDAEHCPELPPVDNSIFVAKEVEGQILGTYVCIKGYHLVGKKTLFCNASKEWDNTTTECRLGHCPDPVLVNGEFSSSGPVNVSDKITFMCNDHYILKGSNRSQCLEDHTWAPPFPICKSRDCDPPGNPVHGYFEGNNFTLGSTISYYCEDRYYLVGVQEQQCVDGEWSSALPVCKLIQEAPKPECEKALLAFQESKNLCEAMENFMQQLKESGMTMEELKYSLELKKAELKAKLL

How did the Kd [1] turn out when “LigBC (fragment of leptospiral immunoglobulin-like protein B, residues 631-1156) (domain or fragment)” was run?
Its Kd is 51.6 nM.

How did the percent reduction of binding with 10 mg/ml heparin [2] turn out when “Human purified C4BP (α7β1) (from UniProt P04003 49-597; P20851 18-252) (complex)” was run?
The percent reduction of binding with 10 mg/ml heparin was 27%.

And the percent reduction of binding with 10 mg/ml heparin (LigB7-8 (L. interrogans))?
Its percent reduction of binding with 10 mg/ml heparin is 45%.

And the percent reduction of binding with 10 mg/ml heparin [3]?
The percent reduction of binding with 10 mg/ml heparin was 35%.

And the percent decrease of binding at 150 mM NaCl (LcpA (L. interrogans))?
The percent decrease of binding at 150 mM NaCl was 30%.

What about the percent decrease of binding at 150 mM NaCl [4] of the same molecule?
Its percent decrease of binding at 150 mM NaCl is 45%.

B1: LigAC (C-terminal fragment of leptospiral immunoglobulin-like protein A, residues 631-1225) (domain or fragment)
chain: LTVSNTNAKRGLGSTLKQGTVKVTASMGGIEDSVDFTVTQATLTSIEVSPTRASIAKGMTQKFTATGIFTDHSKKNITEQVTWKSSSKALSMLNAPGEEGTGKAIAVGKTTITATLEKLSGKTDITVTPAVLTSIQISPVKHSLVKGLTEKFSATGIYSDNSNKDITSSVTWHSSNNSVATISNTKGYQGQAYGTGTGTVNIKATLGNVSSQVSKLSVTAAELTEIVLNPTSSHKAKGLTENFKATGVFTDNSTKDITDQVTWKSSNAAYAKISNATGSKGVVNALSKGTSHISATLGSISSANATFQVTPARIASIEVTPNNFFLIKGLSHPFKAIGIYTDNTKTDITKQVSWSSSDPNVASIDNTFSLAGSATAIDDGKTNITATLSDSMSASTTLYVTSAVLIDIEVKPSIFVLSEGLTLQLTATGIYSDHSTHDLTQVVQWTSSKPSNIAIENTAGKKGKVTALAFGDSEFTATYDSIKSNRAWIFVNDEKLVNITISSSQVLTDKGSAQQFKAIGTFQGGSQLDLTDLVTWKSSDSKVVSISNSNDDRGLTTALSVGSSKISAIYGSIHSDSIDFEVTPEILASIKTEP
How did the Kd [5] turn out when B1 was run?
The Kd was 88.8 ± 7.8 nM.
